# In patent US11072647B2, “TGF-receptor II isoform, fusion peptide, methods of treatment and methods in vitro” (Onsejo Nacional DE Investigation Cientiticay Tecnica, priority 2013, dated 2021):
# B1: TβRII-SE: 80 amino acid soluble endogenous isoform of human TGF-β receptor II lacking the transmembrane domain, SEQ ID No. 2 (protein, listed as Homo sapiens)
# chain: MGRGLLRGLWPLHIVLWTRIASTIPPHVQKSVNNDMIVTDNNGAVKFPQLCKFCDVRFSTCDNQKSCFSKVHYEGKKKAW
# Test system: hASCs cells
# Test: Cytokine Array G5 of supernatants of lentivirally transduced hASCs
# Format: cell-based, human
# Set-up: key to IL-6* secreted by hASC / IGFBP-4 secreted by hASC / IL-7 secreted by hASC / LIF secreted by hASC / TNF-α secreted by hASC / FLT3-L secreted by hASC / SCF secreted by hASC / LIGHT secreted by hASC / IL-3 secreted by hASC / Oncostatin M secreted by hASC / FGF-7 secreted by hASC / FGF-9 secreted by hASC / Angiogenin secreted by hASC / BDNF secreted by hASC / NT-3 secreted by hASC / EGF secreted by hASC / NT-4 secreted by hASC / PIGF secreted by hASC / TIMP-1 secreted by hASC / GRO secreted by hASC / TIMP-2 secreted by hASC / CXCL1 (GROα) secreted by hASC / INF-γ secreted by hASC / CXCL6 (GCP-2) secreted by hASC / IL-2 secreted by hASC / CXCL9 (MIG) secreted by hASC / CXCL10 (IP-10) secreted by hASC / Osteopontin secreted by hASC / CXCL12 (SDF-1) secreted by hASC / Osteoprotegerin secreted by hASC / CXCL13 (BLC) secreted by hASC / CCL1 (I-309) secreted by hASC / Leptin secreted by hASC / CCL2 (MCP-1) secreted by hASC / CCL4 (MIP1b) secreted by hASC / GDNF secreted by hASC / CCL7 (MCP-3) secreted by hASC / IL-10 secreted by hASC / CCL8 (MCP-2) secreted by hASC / IL-13 secreted by hASC / CCL17 (TARC) secreted by hASC / IL-1α secreted by hASC / CCL18 (PARC) secreted by hASC / IL-1β secreted by hASC / CCL20 (MIP3a) secreted by hASC / CCL24 (Eotaxin-2) secreted by hASC / IL-12 p70 secreted by hASC / CCL26 (Eotaxin-3) secreted by hASC / IL-15 secreted by hASC / G-CSF secreted by hASC / IGF-1 secreted by hASC / M-CSF secreted by hASC / IGFBP-1 secreted by hASC / GM-CSF secreted by hASC / IGFBP-3 secreted by hASC / TNF-β secreted by hASC / Onc M secreted by hASC / VEGF secreted by hASC / CXCL5 (ENA-78) secreted by hASC / MIF secreted by hASC / CCL11 (Eotaxin) secreted by hASC / IL-5 secreted by hASC / TGF-β1 secreted by hASC: ↑: Increase or decrease of cytokines levels are referred to the levels secreted by cells transduced with the control vector Lt.eGFP; ↓: Increase or decrease of cytokines levels are referred to the levels secreted by cells transduced with the control vector Lt.eGFP; UC: unchanged levels with respect to cells transduced with the control vector Lt.eGFP; Abs: absent in mock transducer cells control; Abs: absent in mock transducer cells control
# Procedure: Furthermore, the effect of TβRII-SE recombinant isoform was measured on a panel of 80 cytokines secreted by hASCs cells (FIG. 16). Cells were transduced with either control Lt-GFP, the TGF-β1 inhibitor Lt. TβRII-DN, or Lt-TβRII-SE and incubated in the presence or absence of exogenous TGF-β1. Collected supernatants were used to analyze the cytokines in a Cytokine Array G5 (Raybiotech, Inc. Norcross, USA).
# Increase or decrease of cytokines levels are referred to the levels secreted by cells transduced with the control vector Lt.eGFP either in the presence (paracrine) or absence (autocrine) of exogenous TGF-β1. UC: unchanged levels with respect to cells transduced with the control vector Lt.eGFP. Abs: absent in mock transducer cells control. Dark grey boxes: decreased to undetected levels or absent in the supernatant of cells transduced with control vector Lt.eGFP.
# A cytokine/chemokine array kit G5 (Ray Biotech Inc., Norcross, Ga.) was used to detect a panel of 80 secreted cytokines as recommended by the manufacturer. hASCs P7 untransduced or transduced with lentiviral vectors were grown for 72 h in a medium supplemented with 0.1% BSA. Supernatants were collected, filtered and frozen after collection. For densitometry analysis of the arrays, Typhoon 9410 Variable mode Imager (GE Healthcare Life Sciences) was used, and signal intensity values were measured using the Image analysis software ImageQuant TL 7.0 (GE Healthcare Life Sciences). Microarray data were analyzed with RayBio® Antibody Array Analysis Tool. Good data quality and adequate normalization were ensured using internal control normalization without background. Any ≥1.5-fold increase or ≤0.65-fold decrease in signal intensity for a single analyte between samples or groups may be considered a measurable and significant difference in expression, provided that both sets of signals are well above background (Mean background+3 standard deviations, accuracy≈99%).
# [1] = Autocrine TGF-β1 (no exogenous TGF-β1), vs Lt.eGFP control
# [2] = Paracrine TGF-β1 (3 pg/μl), vs Lt.eGFP control
molecule,measurement,setting,value
B1,OPG secretion,"ASC, high TGF-β1 concentration, vs Lt.eGFP-transduced control cells",dramatic drop
same,Angiogenin secreted by hASC,[1],UC
same,BDNF secreted by hASC,[1],UC
same,CCL1 (I-309) secreted by hASC,[1],UC
same,CCL2 (MCP-1) secreted by hASC,[1],UC
same,CCL4 (MIP1b) secreted by hASC,[1],UC
same,CCL7 (MCP-3) secreted by hASC,[1],UC
same,CCL8 (MCP-2) secreted by hASC,[1],↑
same,CCL17 (TARC) secreted by hASC,[1],UC
same,CCL18 (PARC) secreted by hASC,[1],↓
same,CCL20 (MIP3a) secreted by hASC,[1],abs
same,CCL24 (Eotaxin-2) secreted by hASC,[1],↓
same,CCL26 (Eotaxin-3) secreted by hASC,[1],abs
same,CXCL1 (GROα) secreted by hASC,[1],UC
same,CXCL6 (GCP-2) secreted by hASC,[1],UC
same,CXCL9 (MIG) secreted by hASC,[1],UC
same,CXCL10 (IP-10) secreted by hASC,[1],UC
same,CXCL12 (SDF-1) secreted by hASC,[1],UC
same,CXCL13 (BLC) secreted by hASC,[1],abs
same,EGF secreted by hASC,[1],abs
same,FGF-7 secreted by hASC,[1],↓
same,FGF-9 secreted by hASC,[1],UC
same,FLT3-L secreted by hASC,[1],↓
same,G-CSF secreted by hASC,[1],↓
same,GDNF secreted by hASC,[1],UC
same,GM-CSF secreted by hASC,[1],↑
same,GRO secreted by hASC,[1],UC
same,IGF-1 secreted by hASC,[1],↓
same,IGFBP-1 secreted by hASC,[1],UC
same,IGFBP-3 secreted by hASC,[1],↓
same,IGFBP-4 secreted by hASC,[1],abs
same,IL-1α secreted by hASC,[1],↓
same,IL-1β secreted by hASC,[1],abs
same,IL-2 secreted by hASC,[1],UC
same,IL-3 secreted by hASC,[1],UC
same,IL-6* secreted by hASC,[1],UC
same,IL-7 secreted by hASC,[1],↓
same,IL-10 secreted by hASC,[1],UC
same,IL-12 p70 secreted by hASC,[1],UC
same,IL-13 secreted by hASC,[1],↓
same,IL-15 secreted by hASC,[1],abs
same,INF-γ secreted by hASC,[1],↓
same,LIF secreted by hASC,[1],UC
same,LIGHT secreted by hASC,[1],abs
same,Leptin secreted by hASC,[1],↓
same,M-CSF secreted by hASC,[1],UC
same,NT-3 secreted by hASC,[1],UC
same,NT-4 secreted by hASC,[1],UC
same,Oncostatin M secreted by hASC,[1],↓
same,Osteopontin secreted by hASC,[1],abs
same,Osteoprotegerin secreted by hASC,[1],UC
same,PIGF secreted by hASC,[1],↓
same,SCF secreted by hASC,[1],abs
same,TIMP-1 secreted by hASC,[1],UC
same,TIMP-2 secreted by hASC,[1],UC
same,TNF-α secreted by hASC,[1],↓
same,Angiogenin secreted by hASC,[2],UC
same,BDNF secreted by hASC,[2],Abs
same,CCL1 (I-309) secreted by hASC,[2],abs
same,CCL2 (MCP-1) secreted by hASC,[2],UC
same,CCL4 (MIP1b) secreted by hASC,[2],abs
same,CCL8 (MCP-2) secreted by hASC,[2],UC
same,CCL11 (Eotaxin) secreted by hASC,[2],UC
same,CCL17 (TARC) secreted by hASC,[2],UC
same,CCL20 (MIP3a) secreted by hASC,[2],UC
same,CCL24 (Eotaxin-2) secreted by hASC,[2],abs
same,CCL26 (Eotaxin-3) secreted by hASC,[2],abs
same,CXCL1 (GROα) secreted by hASC,[2],abs
same,CXCL5 (ENA-78) secreted by hASC,[2],UC
same,CXCL6 (GCP-2) secreted by hASC,[2],↓
same,CXCL9 (MIG) secreted by hASC,[2],↓
same,CXCL10 (IP-10) secreted by hASC,[2],↓
same,CXCL12 (SDF-1) secreted by hASC,[2],abs
same,CXCL13 (BLC) secreted by hASC,[2],↓
same,EGF secreted by hASC,[2],↓
same,FGF-7 secreted by hASC,[2],Abs
same,FGF-9 secreted by hASC,[2],UC
same,FLT3-L secreted by hASC,[2],UC
same,G-CSF secreted by hASC,[2],↓
same,GDNF secreted by hASC,[2],Abs
same,GM-CSF secreted by hASC,[2],↓
same,GRO secreted by hASC,[2],UC
same,IGF-1 secreted by hASC,[2],Abs
same,IGFBP-1 secreted by hASC,[2],Abs
same,IGFBP-3 secreted by hASC,[2],↓
same,IGFBP-4 secreted by hASC,[2],↑
same,IL-1α secreted by hASC,[2],↓
same,IL-1β secreted by hASC,[2],UC
same,IL-2 secreted by hASC,[2],Abs
same,IL-3 secreted by hASC,[2],↓
same,IL-5 secreted by hASC,[2],↓
same,IL-6* secreted by hASC,[2],UC
same,IL-7 secreted by hASC,[2],↓
same,IL-10 secreted by hASC,[2],↓
same,IL-12 p70 secreted by hASC,[2],↓
same,IL-13 secreted by hASC,[2],↓
same,IL-15 secreted by hASC,[2],↓
same,INF-γ secreted by hASC,[2],↓
same,LIF secreted by hASC,[2],UC
same,LIGHT secreted by hASC,[2],↓
same,M-CSF secreted by hASC,[2],abs
same,MIF secreted by hASC,[2],UC
same,NT-3 secreted by hASC,[2],↓
same,NT-4 secreted by hASC,[2],Abs
same,Onc M secreted by hASC,[2],abs
same,Osteopontin secreted by hASC,[2],↓
same,PIGF secreted by hASC,[2],↓
same,SCF secreted by hASC,[2],UC
same,TGF-β1 secreted by hASC,[2],UC
same,TIMP-1 secreted by hASC,[2],UC
same,TNF-α secreted by hASC,[2],↓
same,TNF-β secreted by hASC,[2],↓
same,VEGF secreted by hASC,[2],UC
same,HGF secretion upregulation,absence of exogenous TGF-β1,7.65 times
same,HGF secretion upregulation,presence of exogenous TGF-β1,4.16 times
